Reference: US20140105889A1 (published 2014)

T1: human FcγRIIb (human, UniProt P31994 43-217)
T1 construct: also called FcγIIB
T1 sequence: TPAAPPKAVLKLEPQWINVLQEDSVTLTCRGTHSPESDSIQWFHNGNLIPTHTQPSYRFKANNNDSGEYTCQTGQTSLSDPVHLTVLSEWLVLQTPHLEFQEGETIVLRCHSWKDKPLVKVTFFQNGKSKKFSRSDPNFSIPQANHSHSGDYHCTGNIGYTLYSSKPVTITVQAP

T2: human FcγRIIa(R) (human, UniProt P12318 36-217)
T2 construct: Analyte in solution on Biacore; also called FcγRIIa type R; FcgRIIaR
T2 chain: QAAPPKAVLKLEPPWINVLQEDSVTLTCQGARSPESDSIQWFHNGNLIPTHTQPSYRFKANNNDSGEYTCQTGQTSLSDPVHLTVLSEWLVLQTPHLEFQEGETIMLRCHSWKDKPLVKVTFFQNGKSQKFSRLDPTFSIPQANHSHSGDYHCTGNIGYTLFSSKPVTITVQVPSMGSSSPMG


Legend:
human FcγRIIIa(F) = target: T3, human FcγRIIIa(F) (human, UniProt P08637 17-208, limits assumed); test: SPR (Biacore), antibody captured on Protein L, human FcgR as analyte, pH 7.4, 25 C; amount normalised to captured antibody
T3 construct: also called hFcgRIIIa(F); allotype F158
T3 sequence (P08637 other isoform, or with tags, fused parts or gaps limits assumed): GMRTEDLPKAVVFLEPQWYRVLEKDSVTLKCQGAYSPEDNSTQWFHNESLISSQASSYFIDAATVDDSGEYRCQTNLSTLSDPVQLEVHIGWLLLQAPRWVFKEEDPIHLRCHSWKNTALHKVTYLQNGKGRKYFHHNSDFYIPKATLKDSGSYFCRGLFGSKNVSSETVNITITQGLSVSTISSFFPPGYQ
Experimental: Binding activity between the antibodies and human FcγRIa, FcγRIIa(H), FcγRIIa(R), FcγRIIb and FcγRIIIa(F) (hereinafter referred to as human FcγRs) was evaluated using the Biacore T100 or T200 (GE Healthcare). The antibodies being tested were captured by Protein L (ACTIGEN) that was immobilized in suitable amounts on the CM4 Sensor Chip (GE Healthcare) by amine coupling. Next, the diluted human FcγRs and a running buffer used as a blank were injected to allow interaction with the antibodies captured on the sensor chip. A buffer consisting of 20 mmol/L ACES, 150 mmol/L NaCl and 0.05% (w/v) Tween 20 (pH 7.4) was used for the running buffer, and this buffer was also used to dilute the human FcγRs. 10 mmol/L glycine-HCl (pH 1.5) was used to regenerate the sensor chip. All measurements were carried out at 25° C.
Binding activity to human FcγRs can be represented by the relative binding activity to human FcγRs. Antibody was captured by Protein L, and the amount of change in a sensorgram before and after the antibody was captured was defined as X1. Next, human FcγRs were allowed to interact with the antibody, and the value obtained by subtracting binding activity of human FcγRs represented as the amount of change in a sensorgram before and after allowing the running buffer to interact with antibody captured by Protein L (ΔA2) from the value obtained by multiplying by 1500 the value obtained by dividing the binding activity of human FcγRs represented as the amount of change in a sensorgram before and after that interaction (ΔA1) by the captured amount (X) of each antibody, was divided by the captured amount of each antibody (X) followed by multiplying by 1500 to obtain the binding activity of the human FcγRs (Y) (Equation 2).

human FcγRIIb = target: T1, human FcγRIIb; test: SPR (Biacore); KD of parent IL6R-B3/IL6R-L for FcγRIIb divided by KD of the variant for FcγRIIb
Text: Furthermore, KD(IIaR)/KD(IIb) and KD(IIaH)/KD(IIb) in the table respectively represent the value obtained by dividing the KD value of each variant for FcγRIIaR by the KD value of each variant for FcγRIIb, and the value obtained by dividing the KD value of each variant for FcγRIIaH by the KD value of each variant for FcγRIIb.

[1] = target: T4, human FcγRIIIa type V (allotype V158) (human, UniProt P08637 17-208, limits assumed); test: SPR (Biacore), antibody captured on the chip, FcγR as analyte
T4 construct: the assay used allotype V158; also called FcγRIIIaV; FcγRIIIa(V)
T4 sequence (P08637 other isoform, or with tags, fused parts or gaps limits assumed): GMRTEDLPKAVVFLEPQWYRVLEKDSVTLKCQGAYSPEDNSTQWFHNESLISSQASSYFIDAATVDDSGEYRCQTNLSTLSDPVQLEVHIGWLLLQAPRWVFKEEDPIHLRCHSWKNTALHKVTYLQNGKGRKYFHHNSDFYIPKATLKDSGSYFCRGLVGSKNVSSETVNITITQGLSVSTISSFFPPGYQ

human FcγRIa = target: T5, human FcγRIa (human, UniProt P12314 16-292, limits assumed); test: SPR (Biacore), antibody captured on chip, FcγR as analyte, HBS-EP+, 25°C;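 also: FcγR binding response divided by the amount of captured antibody, then expressed relative to the reference antibody ×100, with antibodies captured via immobilized Protein A, A/G, L or antigen peptides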
T5 construct: Analyte in solution on Biacore; also called FcgRIa; hFcgRIa
T5 sequence (P12314 16-292 limits assumed): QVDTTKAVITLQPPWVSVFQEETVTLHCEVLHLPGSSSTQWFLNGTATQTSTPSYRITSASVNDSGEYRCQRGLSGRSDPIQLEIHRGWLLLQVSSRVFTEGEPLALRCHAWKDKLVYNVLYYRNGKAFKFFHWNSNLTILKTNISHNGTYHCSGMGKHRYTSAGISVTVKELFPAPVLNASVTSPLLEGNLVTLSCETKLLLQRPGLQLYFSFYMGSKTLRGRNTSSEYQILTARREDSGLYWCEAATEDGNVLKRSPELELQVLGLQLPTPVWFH
Experimental: (§1) Interaction between each modified antibody and Fcγ receptor prepared in the manner described above was analyzed using the Biacore T100 (GE Healthcare), Biacore T200 (GE Healthcare), Biacore A100 or Biacore 4000. HBS-EP+ (GE Healthcare) was used for the running buffer, and measurements were carried out at 25° C. The chips used were chips in which antigen peptides, Protein A (Thermo Scientific), Protein A/G (Thermo Scientific) or Protein L (ACTIGEN or BioVision) were immobilized on the Series S Sensor Chip CM5 (GE Healthcare) or Series S Sensor Chip CM4 (GE Healthcare) by amine coupling, or chips in which preliminarily biotinylated antigen peptides were allowed to interact and then immobilized on the Series S Sensor Chip SA (certified) (GE Healthcare). The target antibodies were captured on these sensor chips, Fcγ receptor diluted with the running buffer was allowed to interact, followed by measurement of the amount of bound antibody. The amounts bound were compared between antibodies. However, since the amount of Fcγ receptor bound depends on the amount of captured antibody, the values used for comparison were first corrected by dividing the amount of Fcγ receptor bound by the captured amount of each antibody. Through reaction with 10 mM glycine-HCl at pH 1.5, the sensor chips were regenerated by washing off antibody captured on the sensor chips and used repeatedly.
(§2) Binding strength was evaluated according to the following method based on the results of analyzing the interaction with each FcγR. […] That value was then further multiplied by 100, and the resulting value was used as an indicator of relative binding activity to each FcγR.

human FcγRIIa(R) = target: T2, human FcγRIIa(R); test: as above
Experimental: as §1, §2

Binder	BINDING AMOUNT (RU) (human FcγRIIIa(F))	KD(IIb) of the parent polypeptide/KD(IIb) of the altered polypeptide (human FcγRIIb)	Kd [1] [µM]	relative binding activity (% of GpH7-B3/GpL16-k0) (human FcγRIa) [%]	relative binding activity (% of GpH7-B3/GpL16-k0) (human FcγRIIa(R)) [%]
antibody containing VH3-IgG1-F890 for the heavy chain and L(WT)-CK for the light chain (antibody) heavy: QVQLQESGPGLVKPSETLSLTCAVSGHSISHDHAWSWVRQPPGEGLEWIGFISYSGITNYNPSLQGRVTISRDNSKNTLYLQMNSLRAEDTAVYYCARSLARTTAMDYWGEGTLVTVSSASTKGPSVFPLAPSSKSTSGGTAALGCLVKDYFPEPVTVSWNSGALTSGVHTFPAVLQSSGLYSLSSVVTVPSSSLGTQTYICNVNHKPSNTKVDKKVEPKSCDKTHTCPPCPAPELLGGPSVFLFPPKPKDTLYISRTPEVTCVVVDVSHEDPEVKFNWYVDGVEVHNAKTKPREEQYNSTYRVVSVLTVLHQDWLNGKEYKCKVSNKALPAPIEKTISKAKGQPREPQVYTLPPSRDELTKNQVSLTCLVKGFYPSDIAVEWESNGQPENNYKTTPPVLDSDGSFFLYSKLTVDKSRWQQGNVFSCSVMHEALHYHVTQKSLSLSP light: not shown	63.5				
IL6R-BP191/IL6R-L (antibody, human IgG1, Anti-human IL-6 receptor human IgG1 variant; copies: 2 + 2) heavy: QVQLQESGPGLVKPSETLSLTCAVSGHSISHDHAWSWVRQPPGEGLEWIGFISYSGITNYNPSLQGRVTISRDNSKNTLYLQMNSLRAEDTAVYYCARSLARTTAMDYWGEGTLVTVSSASTKGPSVFPLAPSSKSTSGGTAALGCLVKDYFPEPVTVSWNSGALTSGVHTFPAVLQSSGLYSLSSVVTVPSSSLGTQTYICNVNHKPSNTKVDKKVEPKSCDKTHTCPPCPAPDLLGGDSVFLFPPKPKDTLMISRTPEVTCVVVDVSDEDGEVKFNWYVDGVEVHNAKTKPREEQYNSTYRVVSVLTVLHQDWLNGKEYKCKVSNAALPKPIEKTISKAKGQPREPQVYTLPPSRDELTKNQVSLTCLVKGFYPSDIAVEWESNGQPENNYKTTPPVLDSDGSFFLYSKLTVDKSRWQQGNVFSCSVMHEALHNHYTQESLSLSP light: DIQMTQSPSSLSASVGDRVTITCRASQDISSYLNWYQQKPGKAPKLLIYYTSRLHSGVPSRFSGSGSGTDFTFTISSLQPEDIATYYCQQGNTLPYTFGQGTKVEIK		21.2	49		
IL6R-BP196/IL6R-L (antibody, human IgG1, Anti-human IL-6 receptor human IgG1 variant; copies: 2 + 2) heavy: QVQLQESGPGLVKPSETLSLTCAVSGHSISHDHAWSWVRQPPGEGLEWIGFISYSGITNYNPSLQGRVTISRDNSKNTLYLQMNSLRAEDTAVYYCARSLARTTAMDYWGEGTLVTVSSASTKGPSVFPLAPSSKSTSGGTAALGCLVKDYFPEPVTVSWNSGALTSGVHTFPAVLQSSGLYSLSSVVTVPSSSLGTQTYICNVNHKPSNTKVDKKVEPKSCDKTHTCPPCPAPEYLGGDSVFLFPPKPKDTLMISRTPEVTCVVVDVSDEDGEVKFNWYVDGVEVHNAKTKPREEQYNSTYRVVSVLTVLHQDWLNGKEYKCKVSNAALPKPIEKTISKAKGQPREPQVYTLPPSRDELTKNQVSLTCLVKGFYPSDIAVEWESNGQPENNYKTTPPVLDSDGSFFLYSKLTVDKSRWQQGNVFSCSVMHEALHNHYTQESLSLSP light: DIQMTQSPSSLSASVGDRVTITCRASQDISSYLNWYQQKPGKAPKLLIYYTSRLHSGVPSRFSGSGSGTDFTFTISSLQPEDIATYYCQQGNTLPYTFGQGTKVEIK		13.9	51		
IL6R-BP199/IL6R-L (antibody, human IgG1, Anti-human IL-6 receptor human IgG1 variant; uncertain; copies: 2 + 2) heavy: QVQLQESGPGLVKPSETLSLTCAVSGHSISHDHAWSWVRQPPGEGLEWIGFISYSGITNYNPSLQGRVTISRDNSKNTLYLQMNSLRAEDTAVYYCARSLARTTAMDYWGEGTLVTVSSASTKGPSVFPLAPSSKSTSGGTAALGCLVKDYFPEPVTVSWNSGALTSGVHTFPAVLQSSGLYSLSSVVTVPSSSLGTQTYICNVNHKPSNTKVDKKVEPKSCDKTHTCPPCPAPDLLGGDSVFLFPPKPKDTLMISRTPEVTCVVVDVSHEDPEVKFNWYVDGVEVHNAKTKPREEQYNSTYRVVSVLTVLHQDWLNGKEYKCKVSNDALPRPIEKTISKAKGQPREPQVYTLPPSRDELTKNQVSLTCLVKGFYPSDIAVEWESNGQPENNYKTTPPVLDSDGSFFLYSKLTVDKSRWQQGNVFSCSVMHEALHNHYTQESLSLSP light: DIQMTQSPSSLSASVGDRVTITCRASQDISSYLNWYQQKPGKAPKLLIYYTSRLHSGVPSRFSGSGSGTDFTFTISSLQPEDIATYYCQQGNTLPYTFGQGTKVEIK		6.3	61		
GpH7-B3 variant P331G / GpL16-k0 (antibody, human IgG1, Anti-glypican-3 IgG1; constant region B3 = G1d with K439E) heavy: not shown light: DIVMTQSPLSLPVTPGEPASISCQASESLVHSNRNTYLHWYLQKPGQSPQLLIYKVSNRFSGVPDRFSGSGSGTDFTLKISRVEAEDVGVYYCSQNTHVPPTFGQGTKVEIE				88	13

Further lines, results first:

BINDING AMOUNT (RU) (human FcγRIIIa(F))	KD(IIb) of the parent polypeptide/KD(IIb) of the altered polypeptide (human FcγRIIb)	Kd [1] [µM]	relative binding activity (% of GpH7-B3/GpL16-k0) (human FcγRIa) [%]	relative binding activity (% of GpH7-B3/GpL16-k0) (human FcγRIIa(R)) [%]	Binder
	53.7	33			IL6R-BP197/IL6R-L (antibody, human IgG1, Anti-human IL-6 receptor human IgG1 variant; copies: 2 + 2) heavy: QVQLQESGPGLVKPSETLSLTCAVSGHSISHDHAWSWVRQPPGEGLEWIGFISYSGITNYNPSLQGRVTISRDNSKNTLYLQMNSLRAEDTAVYYCARSLARTTAMDYWGEGTLVTVSSASTKGPSVFPLAPSSKSTSGGTAALGCLVKDYFPEPVTVSWNSGALTSGVHTFPAVLQSSGLYSLSSVVTVPSSSLGTQTYICNVNHKPSNTKVDKKVEPKSCDKTHTCPPCPAPDYLGDDSVFLFPPKPKDTLMISRTPEVTCVVVDVSDEDGEVKFNWYVDGVEVHNAKTKPREEQDNSTYRVVSVLTVLHQDWLNGKEYKCKVSNDALPKPIEKTISKAKGQPREPQVYTLPPSRDELTKNQVSLTCLVKGFYPSDIAVEWESNGQPENNYKTTPPVLDSDGSFFLYSKLTVDKSRWQQGNVFSCSVMHEALHNHYTQESLSLSP light: DIQMTQSPSSLSASVGDRVTITCRASQDISSYLNWYQQKPGKAPKLLIYYTSRLHSGVPSRFSGSGSGTDFTFTISSLQPEDIATYYCQQGNTLPYTFGQGTKVEIK
	53.2	45			IL6R-BP190/IL6R-L (antibody, human IgG1, Anti-human IL-6 receptor human IgG1 variant; copies: 2 + 2) heavy: QVQLQESGPGLVKPSETLSLTCAVSGHSISHDHAWSWVRQPPGEGLEWIGFISYSGITNYNPSLQGRVTISRDNSKNTLYLQMNSLRAEDTAVYYCARSLARTTAMDYWGEGTLVTVSSASTKGPSVFPLAPSSKSTSGGTAALGCLVKDYFPEPVTVSWNSGALTSGVHTFPAVLQSSGLYSLSSVVTVPSSSLGTQTYICNVNHKPSNTKVDKKVEPKSCDKTHTCPPCPAPELLGDDSVFLFPPKPKDTLMISRTPEVTCVVVDVSDEDGEVKFNWYVDGVEVHNAKTKPREEQYNSTYRVVSVLTVLHQDWLNGKEYKCKVSNKALPKPIEKTISKAKGQPREPQVYTLPPSRDELTKNQVSLTCLVKGFYPSDIAVEWESNGQPENNYKTTPPVLDSDGSFFLYSKLTVDKSRWQQGNVFSCSVMHEALHNHYTQESLSLSP light: DIQMTQSPSSLSASVGDRVTITCRASQDISSYLNWYQQKPGKAPKLLIYYTSRLHSGVPSRFSGSGSGTDFTFTISSLQPEDIATYYCQQGNTLPYTFGQGTKVEIK
	15.7	44			IL6R-BP198/IL6R-L (antibody, human IgG1, Anti-human IL-6 receptor human IgG1 variant; copies: 2 + 2) heavy: QVQLQESGPGLVKPSETLSLTCAVSGHSISHDHAWSWVRQPPGEGLEWIGFISYSGITNYNPSLQGRVTISRDNSKNTLYLQMNSLRAEDTAVYYCARSLARTTAMDYWGEGTLVTVSSASTKGPSVFPLAPSSKSTSGGTAALGCLVKDYFPEPVTVSWNSGALTSGVHTFPAVLQSSGLYSLSSVVTVPSSSLGTQTYICNVNHKPSNTKVDKKVEPKSCDKTHTCPPCPAPDYLGGDSVFLFPPKPKDTLMISRTPEVTCVVVDVSDEDGEVKFNWYVDGVEVHNAKTKPREEQYNSTYRVVSVLTVLHQDWLNGKEYKCKVSNAALPKPIEKTISKAKGQPREPQVYTLPPSRDELTKNQVSLTCLVKGFYPSDIAVEWESNGQPENNYKTTPPVLDSDGSFFLYSKLTVDKSRWQQGNVFSCSVMHEALHNHYTQESLSLSP light: DIQMTQSPSSLSASVGDRVTITCRASQDISSYLNWYQQKPGKAPKLLIYYTSRLHSGVPSRFSGSGSGTDFTFTISSLQPEDIATYYCQQGNTLPYTFGQGTKVEIK
	82	31			IL6R-BP195/IL6R-L (antibody, human IgG1, Anti-human IL-6 receptor human IgG1 variant; copies: 2 + 2) heavy: QVQLQESGPGLVKPSETLSLTCAVSGHSISHDHAWSWVRQPPGEGLEWIGFISYSGITNYNPSLQGRVTISRDNSKNTLYLQMNSLRAEDTAVYYCARSLARTTAMDYWGEGTLVTVSSASTKGPSVFPLAPSSKSTSGGTAALGCLVKDYFPEPVTVSWNSGALTSGVHTFPAVLQSSGLYSLSSVVTVPSSSLGTQTYICNVNHKPSNTKVDKKVEPKSCDKTHTCPPCPAPDYLGDDSVFLFPPKPKDTLMISRTPEVTCVVVDVSDEDGEVKFNWYVDGVEVHNAKTKPREEQDNSTYRVVSVLTVLHQDWLNGKEYKCKVSNAALPKPIEKTISKAKGQPREPQVYTLPPSRDELTKNQVSLTCLVKGFYPSDIAVEWESNGQPENNYKTTPPVLDSDGSFFLYSKLTVDKSRWQQGNVFSCSVMHEALHNHYTQESLSLSP light: DIQMTQSPSSLSASVGDRVTITCRASQDISSYLNWYQQKPGKAPKLLIYYTSRLHSGVPSRFSGSGSGTDFTFTISSLQPEDIATYYCQQGNTLPYTFGQGTKVEIK
